This passage reports binding result and Kd results from patent US20100055033A1 (GOVERNMENT OF THE UNITED STATES OF AMERICA AS REPRESENTED …, published 2010).

One assay concerns the target human insulin (human, UniProt P01308 25-54; P01308 90-110, limits assumed). In words: screening of a human naive phage library; assay not named here.
For assay [1], the target named is T1, recombinant human insulin-like growth factor I (human, UniProt P05019 49-118).
T1 construct: also called IGF-I; IGF I
Nature of the assay: competition ELISA: m706 at 100 nM against the binding of IGF-I (50 nM) to soluble IGF-IR.

The target of assay [2] is T2, human insulin-like growth factor II (human, UniProt P01344 25-91).
T2 construct: also called IGF-II; IGF II
T2 sequence (P01344 25-91 limits assumed): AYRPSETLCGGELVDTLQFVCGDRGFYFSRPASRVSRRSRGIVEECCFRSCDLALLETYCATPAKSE
In words: ELISA on IGF-II, one Fab concentration (not given). How it is done: (§1) ELISA Binding Assay. Antigen was coated on narrow-well, 96-well plate at 50 ng/well overnight at 4° C. For phage ELISA, 10¹⁰ phage from each round of panning was incubated with antigen. Bound phage was detected with anti-M13-HRP polyclonal antibody (Pharmacia, Piscataway, N.J.). For soluble Fab binding assay, anti-Flag HRP conjugate was used to detect the binding.

The target in assay [3] is T1, recombinant human insulin-like growth …. Nature of the assay: competition ELISA: m708 at 400 nM against the binding of IGF-I (50 nM) to soluble IGF-IR.
Assay [4] concerns the target T2, human insulin-like growth factor II. Nature of the assay: method not stated (FIG. 9).
Assay [5] has as its target T1, recombinant human insulin-like growth …. In words: ELISA, Fab titrated on IGF-I. As to the method:
as §1

The target is the same in assay [6]. Nature of the assay: ELISA on IGF-I, one Fab concentration (not given), duplicate bars. As to the method:
as §1

T1 sequence (P05019 49-118 limits assumed): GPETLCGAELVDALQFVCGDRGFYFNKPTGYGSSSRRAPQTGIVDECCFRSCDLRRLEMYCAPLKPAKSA
Chain of human insulin (P01308 25-54 limits assumed, chain 1 of 2): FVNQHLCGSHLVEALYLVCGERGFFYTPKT
Chain of human insulin (P01308 90-110 limits assumed, chain 2 of 2): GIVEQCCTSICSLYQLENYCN

B1: m706 Fab (Fab, V domains shown)
VH: EVQLVQSGVDVKKPGSSVKVSCKASGGTFSSYAISWVRQAPGQGLEWMGGIIPIFGTANYAQKFQGRVTITADESASTAYMELSSLRSEDTAVYYCASGYEGPLWAFDIWGQGTMVTVSS
VL: SQSVLTQPPSVSAAPGQRVSISCSGSSSNIGNYHVSWYQHLPGRAPKLLIYDNSKRPSGIPDRFSGSKSGTSATLDITGLQTGDEGDYYCATWDTSLRWVFGTGTKVTVL
notes: also called No. 6; IGF-I specific mAb
B1: the binding result in the assay with human insulin is on record as “no binding”; in assay [1] it was “binds”; in assay [2] it was “no binding”.

B2: m708 Fab (Fab, V domains shown)
VH: QVQLQQSGAEVKKPGSSVKVSCKASGGTFSSYAISWVRQAPGQGLEWMGGIIPILGIANYAQKFQGRVTITADESTSTAYMELSSLRSEDTAVYYCARGPRGYSYNFDYWGQGTLVTVSS
VL: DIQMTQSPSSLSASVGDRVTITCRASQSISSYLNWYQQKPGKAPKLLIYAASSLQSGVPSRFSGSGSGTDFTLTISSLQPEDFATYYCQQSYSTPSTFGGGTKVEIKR
notes: also called No. 8
On to B2, for which the binding result in assay [3] is “binds”.

B3: m708.2 IgG1 (antibody, V domains shown)
VH: B2 VH
VL: DIQMTQSPSSLSASVGDRVTIACRASQTISRYLNWYQQKPGKAPKLLIYAASSLQSGVSSRFSGSGSGTEFTLTISSLQPEDFATYFCQQTYSPPITFGQGTRLEIKR
notes: also called IgG708.2
B3 registered a Kd in assay [4] of about 0.08 nM.

B4: m708.2 Fab (Fab, V domains shown)
VH: B2 VH
VL: B3 VL
notes: also called clone m708.2
For B4, the binding result in assay [5] is reported as “binds”.

B5: m705 Fab (Fab, V domains shown)
VH: QVQLVQSGVEVKKPGASVKVPCKASGYTFTSYYMHWVRQAPGQGLEWMGIINPSGGSTSYAQKFQGRVTMTRDTSTSTVYMELSSLRSEDTAVYYCARDDFWSGAVGMDVWGQGTTVTVSS
VL: DIQMTQSPATLSLSPGERATLSCRASQDVGSDLAWYQQKPGQPPRLLVSDASNRATGIPARFSGSGSGTDFKLTINSLEPEDSAVYYCQQRRRWPPGATFGGGTKVEIKR
notes: also called No. 5; IGF-I specific mAb
Take B5: the binding result with human insulin was “no binding”; in assay [6] it was “binds”; in assay [2], “no binding”.
